Results from article PMC12506513, “Conformational dynamics of the bacterial E3 ligase SspH1” (The Journal of Biological Chemistry, 2025).

B2: ΔNSspH1 (161-700) (domain or fragment)
chain: AEYDAVWSKWERDAPAGESPGRAAVVQEMRDCLNNGNPVLNVGASGLTTLPDRLPPHITTLVIPDNNLTSLPELPEGLRELEVSGNLQLTSLPSLPQGLQKLWAYNNWLASLPTLPPGLGDLAVSNNQLTSLPEMPPALRELRVSGNNLTSLPALPSGLQKLWAYNNRLTSLPEMSPGLQELDVSHNQLTRLPQSLTGLSSAARVYLDGNPLSVRTLQALRDIIGHSGIRIHFDMAGPSVPREARALHLAVADWLTSAREGEAAQADRWQAFGLEDNAAAFSLVLDRLRETENFKKDAGFKAQISSWLTQLAEDAALRAKTFAMATEATSTCEDRVTHALHQMNNVQLVHNAEKGEYDNNLQGLVSTGREMFRLATLEQIAREKAGTLALVDDVEVYLAFQNKLKESLELTSVTSEMRFFDVSGVTVSDLQAAELQVKTAENSGFSKWILQWGPLHSVLERKVPERFNALREKQISDYEDTYRKLYDEVLKSSGLVDDTDAERTIGVSAMDSAKKEFLDGLRALVDEVLGSYLTARWRLN
notes: also called WT SspH1; source: E. coli BL21 Gold, purified (nickel-nitrilotriacetic acid resin, 3C protease, gel filtration)

Key:
Details in all cases: both partners purified
ΔNSspH1 (161-700) = molecular target: B2; assay: SEC-MALS; SEC-MALLS of FL SspH1 and ΔNSspH1 alone and with the substrate PKN1; in the range of concentrations explored
[1] = molecular target: T1, full-length SspH1 (1 to 700) (Salmonella, UniProt D0ZVG2 1-700); assay: as above
T1 construct: also called FL SspH1; FL protein; source: E. coli BL21 Gold, purified (nickel-nitrilotriacetic acid resin, 3C protease, gel filtration)
T1 sequence: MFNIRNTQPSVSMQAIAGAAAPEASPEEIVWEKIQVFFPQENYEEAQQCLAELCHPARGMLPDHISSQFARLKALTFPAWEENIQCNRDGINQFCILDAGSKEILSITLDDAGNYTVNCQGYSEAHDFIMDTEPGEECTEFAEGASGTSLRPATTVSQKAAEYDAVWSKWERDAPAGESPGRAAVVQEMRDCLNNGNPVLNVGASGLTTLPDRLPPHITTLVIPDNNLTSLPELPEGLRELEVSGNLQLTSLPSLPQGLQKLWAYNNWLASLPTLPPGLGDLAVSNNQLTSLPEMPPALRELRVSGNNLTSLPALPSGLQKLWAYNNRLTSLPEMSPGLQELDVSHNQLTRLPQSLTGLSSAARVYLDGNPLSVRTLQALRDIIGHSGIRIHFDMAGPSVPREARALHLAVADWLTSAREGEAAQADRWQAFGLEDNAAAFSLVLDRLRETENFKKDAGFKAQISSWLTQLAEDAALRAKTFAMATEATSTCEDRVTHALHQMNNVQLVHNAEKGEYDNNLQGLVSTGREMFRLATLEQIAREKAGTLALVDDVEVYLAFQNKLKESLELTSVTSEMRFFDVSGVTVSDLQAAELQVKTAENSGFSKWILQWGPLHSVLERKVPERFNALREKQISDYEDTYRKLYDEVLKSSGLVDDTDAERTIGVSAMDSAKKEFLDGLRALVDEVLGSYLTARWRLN

15N-labeled ubiquitin = molecular target: T2, 15N-labeled ubiquitin (UniProt P0CG48 1-76, 15N isotope-enriched); assay: NMR titration; 15N-Ub titrated with SspH1 constructs; 1H-15N HSQC, 800 MHz; chemical shift perturbations and line broadening of Ub backbone amides
T2 construct: also called 15N-Ub; free Ub

B1: PKN1 HR1b domain (residues 122-199) (domain or fragment)
chain: not shown
notes: also called HR1b PKN1; substrate PKN1; source: E. coli BL21 Gold, purified (nickel-nitrilotriacetic acid resin, 3C protease, gel filtration)
- stoichiometry N (ΔNSspH1 (161-700)): 1
- stoichiometry N [1]: 1

Binder: B2
- binding result (15N-labeled ubiquitin): binds

B3: E487R SspH1 (domain or fragment)
chain: AEYDAVWSKWERDAPAGESPGRAAVVQEMRDCLNNGNPVLNVGASGLTTLPDRLPPHITTLVIPDNNLTSLPELPEGLRELEVSGNLQLTSLPSLPQGLQKLWAYNNWLASLPTLPPGLGDLAVSNNQLTSLPEMPPALRELRVSGNNLTSLPALPSGLQKLWAYNNRLTSLPEMSPGLQELDVSHNQLTRLPQSLTGLSSAARVYLDGNPLSVRTLQALRDIIGHSGIRIHFDMAGPSVPREARALHLAVADWLTSAREGEAAQADRWQAFGLEDNAAAFSLVLDRLRETENFKKDAGFKAQISSWLTQLAEDAALRAKTFAMATRATSTCEDRVTHALHQMNNVQLVHNAEKGEYDNNLQGLVSTGREMFRLATLEQIAREKAGTLALVDDVEVYLAFQNKLKESLELTSVTSEMRFFDVSGVTVSDLQAAELQVKTAENSGFSKWILQWGPLHSVLERKVPERFNALREKQISDYEDTYRKLYDEVLKSSGLVDDTDAERTIGVSAMDSAKKEFLDGLRALVDEVLGSYLTARWRLN
notes: also called E487R mutant; source: E. coli BL21 Gold, purified (nickel-nitrilotriacetic acid resin, 3C protease, gel filtration)
- binding result (15N-labeled ubiquitin): binds

B4: SspH1 NEL domain (405 to 700) (domain or fragment)
chain: RALHLAVADWLTSAREGEAAQADRWQAFGLEDNAAAFSLVLDRLRETENFKKDAGFKAQISSWLTQLAEDAALRAKTFAMATEATSTCEDRVTHALHQMNNVQLVHNAEKGEYDNNLQGLVSTGREMFRLATLEQIAREKAGTLALVDDVEVYLAFQNKLKESLELTSVTSEMRFFDVSGVTVSDLQAAELQVKTAENSGFSKWILQWGPLHSVLERKVPERFNALREKQISDYEDTYRKLYDEVLKSSGLVDDTDAERTIGVSAMDSAKKEFLDGLRALVDEVLGSYLTARWRLN
notes: also called isolated NEL domain; source: E. coli BL21 Gold, purified (nickel-nitrilotriacetic acid resin, 3C protease, gel filtration)
- binding result (15N-labeled ubiquitin): binds
